Results reported in US8927207B2, “miRNAs as therapeutic targets in cancer” (Research Foundation of State University of New York, priority 2008, dated 2015).

What was measured:
DHFR mRNA [1] = test: real time qRT-PCR of DHFR mRNA after transfection; assay type: cell-based, human; details: HCT-116 (wt-p53), 24 h after transfection, GAPDH normalized
Experimental: The analysis was performed as follows. Total RNA, including miRNA, was isolated from cell lines by using TRIzol reagent (Invitrogen) according to the manufacturer's instructions at 24 h after transfection. cDNA was synthesized with the High Capacity cDNA synthesis kit (Applied Biosystems) using 2 μg of total RNA as the template and random primers. Real-time qRT-PCR analysis was done on the experimental mRNAs. The PCR primers and probes for DHFR, and the internal control gene GAPDH were purchased from Applied Biosystems. qRT-PCR was done on an ABI 7500HT instrument under the following conditions: 50° C., 2 min of reverse transcription; 95° C., 10 min; 95° C., 15 sec; 60° C., 1 min. The reaction was done for up to 40 cycles (n=3). GAPDH was used as an internal standard for normalization.

HCT-116 (wt-p53) cells = test: WST-1 cell proliferation with MTX treatment after transfection; assay type: cell-based, human; details: 72 hours
Experimental: HCT-116 (wt-p53) cells were plated in 96-well plates at 1×10^3 cells/well in triplicate. They were transfected with miR-192 precursor (FIG. 3, lane 4), non-specific control miRNA (FIG. 3, lane 2), or siRNA against DHFR (FIG. 3, lane 3) in 100 μl of medium. […] Ten microliters of WST-1 (Roche Applied Science) was added to each well. After 2 hours of incubation, absorbance was measured at 450 and 630 nm respectively (n=3).

HCT-116 (null-p53) cells = test: cell cycle analysis by flow cytometry; assay type: cell-based, human
Experimental: To determine whether the miR-192's impact on cellular proliferation was related to cell cycle control, the effect on cell cycle control was analyzed by flow cytometry using HCT-116 (wt-p53) (FIG. 5A) and HCT-116 (null-p53) (FIG. 5B) cells transfected with non-specific control miR (left line graph) or miR-192 (right line graph). This experiment was performed as follows. The HCT-116 (wt-p53) and HCT-116 (null-p53) cells lines as described above (see Example 3) were transfected with miR-192 precursor and the non-specific control miRNA described as above (see Examples 1 and 2). At 36 hours after transfection, the cells were harvested and resuspended at 0.5-1×10^5 cells/ml in modified Krishan buffer containing 0.1% sodium citrate and 0.3% NP-40 and kept at 4° C. Before being analyzed by flow cytometry, cells were treated with 0.02 mg/ml RNase H and stained with 0.05 mg/ml propidium iodide (Sigma).

Bax = test: Western immunoblot of cell cycle control genes, HCT-116 (wt-p53); assay type: cell-based, human; details: 48 hours after transfection
Experimental: (§1) miR-192 expression is dependent on p53. To further analyze the cell cycle control genes involved in miR-192 overexpression, a number of cell cycle control genes were analyzed (p53, p21, Bax, E2F3, Rb). HCT-116 (wt-p53) cells (FIG. 6A) and RKO (wt-p53) cells (FIG. 6B), as described above (see Example 3), were transfected with non-specific miR (FIG. 6A, lane 2; and FIG. 6B, lane 1), DHFR siRNA (FIG. 6A, lane 3; and FIG. 6B, lane 2) and miR-192 (FIG. 6A, lane 4; and FIG. 6B, lane 3) according to the procedure discussed above (see Examples 1 and 2). Non-transfected HCT-116 (wt-p53) was used as a negative control (FIG. 6A, lane 1). Alpha-tubulin was used as a protein loading control.

p21 [2] = test: as above; assay type: cell-based, human; details: 48 hours after transfection
Experimental: as §1

p53 [3] = test: as above; assay type: cell-based, human; details: 48 hours after transfection
Experimental: as §1

E2F3 = test: Western immunoblot of E2F3, HCT-116 (wt-p53); assay type: cell-based, human
Experimental: (§2) The expression of miR-192 on the expression of E2F3 and Rb in HCT-116 (wt-p53) cells was also analyzed. In these experiments, HVT-116 (wt-p53) cells, as described above (see Example 3) were transfected with non-specific miR (FIG. 7, lane 2), DHFR siRNA (FIG. 7, lane 3) or miR-192 (FIG. 7, lane 4) according to the procedure described above (see Examples 1 and 2). One HCT-116 (wt-p53) sample was not transfected, and used as a negative control (FIG. 7, lane 1). Western immunoblot analysis was performed according to the procedure described above (see Example 5), except that rabbit anti-E2F-3 polyclonal antibody (1:1000, C-18) (Santa Cruz Biotechnology) was used.

Rb = test: Western immunoblot of Rb, HCT-116 (wt-p53); assay type: cell-based, human
Experimental: as §2

p53 [4] = test: western immunoblot of p53 in HCT-116 (wt-p53) and U-2 OS cells; assay type: cell-based; details: both HCT-116 (wt-p53) and U-2 OS cells, 48 h after transfection
Description: (§3) miR-215 increases the expression of cell cycle control genes p53 and p21. p53 and p21, a downstream target of the p53 pathway of growth control, are reported to block cells at G2 checkpoint mainly through inhibiting activity of Cdc2, the cyclin-dependent kinase that normally drives cells into mitosis, which is the ultimate target of pathways that mediate rapid arrest in G2 in response to DNA damage. To further analyze the mechanism of cell proliferation inhibition by miR-215, we transfected miR-215 precursor into HCT-116 (wt-p53) and U-2 OS cells, and evaluated the levels of cell cycle control genes p53 and p21 by western immunoblot analysis.

p21 [5] = test: western immunoblot of p21 in HCT-116 (wt-p53) and U-2 OS cells; assay type: cell-based; details: both HCT-116 (wt-p53) and U-2 OS cells, 48 h after transfection
Description: as §3

TS = test: western immunoblot of TS protein after transfection; assay type: cell-based; details: 48 hours after transfection
Experimental: At 48 h after transfection with miR-215, miR-192 precursors or non-specific control miRNA, the cells were scraped and lysed in RIPA buffer (Sigma). Equal amounts of proteins were resolved by SDS-PAGE on 12% gels by the method of Laemmli, and transferred to polyvinylidene fluoride membranes (BIO-RAD Laboratories). The membranes were then blocked by 5% nonfat milk in TBS-T (Tris-buffered saline and 0.5% Tween-20) at room temperature for 1 h. The primary antibodies used for the analysis included mouse anti-TS mAb (1:400, Millipore), mouse anti-DHFR mAb (1:250, BD Bioscience), mouse anti-p53 mAb (1:1000, DO-1), mouse anti-p21 mAb (1:1000, F-5), and mouse anti-α-tubulin mAb (1:1000, TU-02) purchased from Santa Cruz Biotechnology. Horseradish peroxidase—conjugated antibodies against mouse (1:1000, Santa Cruz Biotechnology) were used as the secondary antibodies. Protein bands were visualized with a chemiluminescence detection system using the Super Signal substrate (BIO-RAD).
At 48 hours after transfection, proteins were extracted from miR-215-transfected cells and from control cells and changes in TS or DHFR protein levels were determined by western immunoblot analysis (FIG. 14).

TS mRNA = test: real time qRT-PCR of TS mRNA; assay type: cell-based; details: U-2 OS cells
Experimental: (§4) Expression levels of TS or DHFR mRNA were analyzed using real time qRT-PCR analysis (FIG. 15).

DHFR mRNA [6] = test: real time qRT-PCR of DHFR mRNA; assay type: cell-based; details: U-2 OS cells
Experimental: as §4

[7] = HCT-116 (null), 36 hours after transfection

B1: miR-192: microRNA miR-192 (SEQ ID NO:1), transfected into cells as miR-192 precursor (Ambion) (nucleic acid)
chain: GCCGAGACCGAGUGCACAGGGCUCUGACCUAUGAAUUGACAGCCAGUGCUCUCGUCUCCCCUCUGGCUGCCAAUUCCAUAGGUCACAGGUAUGUUCGCCUCAAUGCCAGC
modifications: delivered as precursor, further chemistry not given here
DHFR mRNA [1]
  DHFR mRNA expression: no reduction
HCT-116 (wt-p53) cells; MTX 25 nM
  effect in combination with MTX: synergistic effect
HCT-116 (wt-p53) cells; transfected cells in combination with MTX 25 nM
  cell proliferation reduced: ~70%
HCT-116 (null-p53) cells; [7]
  cell cycle profile G1: 35.65%
  cell cycle profile G1/S: 0.79 ratio (unitless)
  cell cycle profile G2: 19.06%
  cell cycle profile G2/S: 0.42 ratio (unitless)
  cell cycle profile S: 45.29%
HCT-116 (null-p53) cells; HCT-116 (null-p53)
  G1 and G2 arrest: has not been observed
Bax
  expression of Bax: not altered
p21 [2]
  increase in expression of p21: 10 fold
p53 [3]
  increase in expression of the p53 protein: over 10 fold
E2F3
  expression of E2F3: decreased expression
Rb
  expression of Rb: decreased expression
p53 [4]
  p53 protein level: significant increase
p21 [5]
  p21 protein level: significant increase
TS
  TS protein levels: clearly decreases
TS mRNA
  TS mRNA expression: no reduction
DHFR mRNA [6]
  DHFR mRNA expression: no reduction
